B1: PXXP-HSCF peptide, 432GFNLRIGRPKGPRDPPAEWT451 (PTP HSCF) (peptide)
peptide: GFNLRIGRPKGPRDPPAEWT
notes: Synthetic peptide; also called C-terminally derived PTP HSCF peptide; peptide derived from the C-terminus of PTP HSCF

The experiment concerns the target T1, PSTPIP, full-length, with a C-terminal FLAG epitope (murine, UniProt P97814 1-415).
T1 construct: In vitro transcribed/translated or expressed in COS cells from pRK.PIP.FLAG.C
T1 sequence: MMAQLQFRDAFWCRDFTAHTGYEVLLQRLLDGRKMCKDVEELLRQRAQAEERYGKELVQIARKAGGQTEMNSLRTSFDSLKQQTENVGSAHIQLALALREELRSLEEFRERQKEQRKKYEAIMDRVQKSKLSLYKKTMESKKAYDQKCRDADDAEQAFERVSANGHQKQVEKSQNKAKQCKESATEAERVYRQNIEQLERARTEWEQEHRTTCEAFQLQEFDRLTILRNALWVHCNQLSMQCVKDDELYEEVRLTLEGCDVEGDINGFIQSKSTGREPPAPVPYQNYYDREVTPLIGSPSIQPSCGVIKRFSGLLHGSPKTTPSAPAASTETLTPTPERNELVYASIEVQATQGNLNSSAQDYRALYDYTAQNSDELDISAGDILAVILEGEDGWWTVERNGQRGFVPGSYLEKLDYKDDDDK
In words: peptide competition of GST-PST-rich+CTH PTP HSCF pull-down of in vitro translated PSTPIP.
Regarding GFGNRFSKPKGPRNPPSAW (Synthetic peptide) [PXXP-PEP peptide, 782GFGNRFSKPKGPRNPPSAW800 (PTP PEP)], the “lowest concentration that blocks the interaction” value was approximately 800 nM.
Under B1 stands approximately 800 nM; under GFGNRCGKPKGPRDPPSEWT (Synthetic peptide) [PXXP-PEST peptide, 761GFGNRCGKPKGPRDPPSEWT780 (PTP PEST)], approximately 800 nM.

For the origin of these results see patent EP0980426B1 (Genentech, Inc., dated 2004).
